The source of these data is patent publication US20260053892A1, “Induction and Expansion of Regulatory T Cells” (Board of Regents of the University of Nebraska, priority 2022, published 2026).

The conditions of data set [1]: 3 or 6 μg/kg/day, cited from earlier work.
The conditions of data set [2]: in vivo; cited from earlier work.
In the next data set the test system is Tregs. Put plainly: Treg profiles by flow cytometry in blood, lymph nodes and spleen of treated mice. Format: in vivo, C57BL/6 male mice. How it is done: C57BL/6 male mice (5-6 weeks old) were purchased from Jackson Laboratories (Bar Harbor, ME). […] Following a period of acclimation, mice were injected intraperitoneally (i.p.) with daily GM-CSF (Group 4) (Days 0-4). […] On Day 10, the mice were sacrificed, blood was collected, and spleen and lymph nodes were harvested.
Following treatment, whole blood, lymph nodes and spleens were collected to determine T-cell profiles via flow cytometric analysis. Peripheral blood, lymph nodes, and splenocytes were fluorescently labeled using antibodies against cell surface antigens including CD3, CD4, CD25, CD8, CD19, CD127, ICOS, GITR, CD39, CD62L, CD44, GITR, and CTLA-4, and for the intracellular markers FoxP3 and STAT5. Whole blood, lymph nodes, and splenocytes were labeled with PerCP Cyanine 5.5-anti-CD3 (eBioscience/Thermo Fisher Scientific, Waltham, MA), APC-anti-CD19 (eBiosciences), PE-anti-CD25 (eBiosciences), PE-cyanine7-anti-CD4 (eBiosciences), PerCP-eFluor710-anti-CD39 (eBiosciences), Alexa Fluor™ 488-anti-CD278 (ICOS) (Biolegend, San Diego, CA), FITC-anti-CD127 (Biolegend), FITC-anti-CD44, Alexa Fluor™ 488-anti-CTLA-4, Alexa Flour™ 700-anti-GITR, FITC-anti-CD8, and PerCP Cyanine 5.5-anti-CD62L. Intracellular staining was performed following permeabilization for 45 minutes at 4° C. Cells were labeled with APC-anti-FoxP3 (eBioscience) or anti-STAT5-Pacific Blue. Samples were analyzed with an LSRII flow cytometer and FACSDiva™ Software (BD Biosciences, San Diego, CA).
All values are expressed as mean±SEM using ANOVA (mean±SEM, n=3). *=p≤0.05; **=p≤0.01; *** p≤0.001. Data were analyzed using GraphPad Prism 9.3.1 software (La Jolla, CA).
(Flow cytometry measures light scatter and fluorescence of single cells or particles in a stream.)

As to “sargramostim: human recombinant GM-CSF (sargramostim, Leukine®)”, in data set [1], the Treg numbers result is “increased” and the “Unified Parkinson's Disease Rating Scale (UPDRS) scores” value is reported as “modestly improved”. Besides, in data set [1] (low doses), the Safety and tolerability result was “safe and well-tolerated”.

B1: granulocyte-macrophage colony-stimulating factor (protein, UniProt P01587 18-141, looked up)
Granulocyte-macrophage …: APTRSPITVTRPWKHVEAIKEALNLLDDMPVTLNEEVEVVSNEFSFKKLTCVQTRLKIFEQGLRGNFTKLKGALNMTASYYQTYCPPTPETDCETQVTTYADFIDSLKTFLTDIPFECKKPGQK
notes: granulocyte-macrophage colony-stimulating factor, immunomodulatory growth factor; 0.1 mg/kg i.p. in mice
Take B1: in data set [2], the half-life entry is on record as “six”. Moreover, the “CD4+CD25+FOXP3+ Tregs” value in the data set with Tregs (blood, FIG. 4) is recorded as “did not induce”; in the data set with Tregs (spleen, FIG. 3), “did not induce”. Besides, the “CD25+CD127− Tregs” value in the data set with Tregs (blood, FIG. 5) is on record as “did not induce”; in the data set on Tregs (spleen, FIG. 6) it was “did not induce”. In addition, the “CD25+ICOS+ Tregs” value in the data set on Tregs (blood, FIG. 7) is “did not significantly induce”; in the data set with Tregs (spleen, FIG. 8), “did not significantly induce”. The “CD4+CD25+ Tregs” value with Tregs (lymph nodes, FIG. 2) was “only a mild increase”. For the same molecule, the “CD25+GITR+ Tregs” value with Tregs (lymph nodes, FIG. 9) is reported as “did not induce”. Besides, the “CD25+CD39+ Tregs” value in the data set with Tregs (spleen, FIG. 10) is listed as “did not induce”. Also, the “CD25+CD62L− Tregs” value in the data set on Tregs (spleen, FIG. 11) is given as “did not significantly induce”.
